Assay results published in US20160051694A1.

Experiments:
[1] = target: CD37 (Leukocyte Antigen CD37, Tetraspanin-26) on cells (human) (UniProt P11049); test: FACS, 5 ug/mL biotinylated control antibody + streptavidin-PE, BDCM cells (AML); background control
[2] = target: CD37 (Leukocyte Antigen CD37, Tetraspanin-26) on cells (human) (UniProt P11049); test: FACS, 5 ug/mL biotinylated control antibody + streptavidin-PE, Mino cells (MCL); background control
[3] = target: CD37 (Leukocyte Antigen CD37, Tetraspanin-26) on cells (human) (UniProt P11049); test: FACS, 5 ug/mL biotinylated control antibody + streptavidin-PE, EoL-1 cells (AML); background control
[4] = target: CD37 (Leukocyte Antigen CD37, Tetraspanin-26) on cells (human) (UniProt P11049); test: FACS, 5 ug/mL biotinylated control antibody + streptavidin-PE, HL-60 cells (AML); background control
[5] = target: CD37 (Leukocyte Antigen CD37, Tetraspanin-26) on cells (human) (UniProt P11049); test: FACS, 5 ug/mL biotinylated control antibody + streptavidin-PE, JVM-3 cells (CLL); background control
[6] = target: CD37 (Leukocyte Antigen CD37, Tetraspanin-26) on cells (human) (UniProt P11049); test: FACS, 5 ug/mL biotinylated control antibody + streptavidin-PE, REC-1 cells (MCL); background control
[7] = target: CD37 (Leukocyte Antigen CD37, Tetraspanin-26) on cells (human) (UniProt P11049); test: FACS, 5 ug/mL biotinylated control antibody + streptavidin-PE, THP-1 cells (AML); background control
[8] = target: CD37 (Leukocyte Antigen CD37, Tetraspanin-26) on cells (human) (UniProt P11049); test: FACS, 5 ug/mL biotinylated control antibody + streptavidin-PE, MOLT-4 cells (ALL); background control
[9] = target: CD37 (Leukocyte Antigen CD37, Tetraspanin-26) on cells (human) (UniProt P11049); test: FACS, 5 ug/mL biotinylated control antibody + streptavidin-PE, RS4-11 cells (ALL); background control
[10] = target: CD37 (Leukocyte Antigen CD37, Tetraspanin-26) on cells (human) (UniProt P11049); test: FACS, 5 ug/mL biotinylated control antibody + streptavidin-PE, MOLM-13 cells (AML); background control
[11] = target: CD37 (Leukocyte Antigen CD37, Tetraspanin-26) on cells (human) (UniProt P11049); test: FACS, 5 ug/mL biotinylated control antibody + streptavidin-PE, MV-4-11 cells (AML); background control
[12] = target: CD37 (Leukocyte Antigen CD37, Tetraspanin-26) on cells (human) (UniProt P11049); test: FACS, 5 ug/mL biotinylated control antibody + streptavidin-PE, Kasumi-1 cells (AML); background control
[13] = target: CD37 (Leukocyte Antigen CD37, Tetraspanin-26) on cells (human) (UniProt P11049); test: FACS, 5 ug/mL biotinylated control antibody + streptavidin-PE, Mino XCL cells (MCL); background control
[14] = target: CD37 (Leukocyte Antigen CD37, Tetraspanin-26) on cells (human) (UniProt P11049); test: FACS, 5 ug/mL biotinylated control antibody + streptavidin-PE, Raji cells (Burkitt's); background control
[15] = target: CD37 (Leukocyte Antigen CD37, Tetraspanin-26) on cells (human) (UniProt P11049); test: FACS, 5 ug/mL biotinylated control antibody + streptavidin-PE, SU-DHL-4 cells (DLBCL); background control
[16] = target: CD37 (Leukocyte Antigen CD37, Tetraspanin-26) on cells (human) (UniProt P11049); test: FACS, 5 ug/mL biotinylated control antibody + streptavidin-PE, Daudi cells (Burkitt's); background control
[17] = target: CD37 (Leukocyte Antigen CD37, Tetraspanin-26) on cells (human) (UniProt P11049); test: FACS, 5 ug/mL biotinylated control antibody + streptavidin-PE, Ramos cells (Burkitt's); background control
[18] = target: CD37 (Leukocyte Antigen CD37, Tetraspanin-26) on cells (human) (UniProt P11049); test: FACS, 5 ug/mL biotinylated control antibody + streptavidin-PE, WSU-DLCL-2 cells (DLBCL); background control
[19] = target: CD37 (Leukocyte Antigen CD37, Tetraspanin-26) on cells (human) (UniProt P11049); test: FACS, 5 ug/mL biotinylated control antibody + streptavidin-PE, DOHH-2 cells (Follicular); background control
[20] = target: CD37 (Leukocyte Antigen CD37, Tetraspanin-26) on cells (human) (UniProt P11049); test: FACS, 5 ug/mL biotinylated control antibody + streptavidin-PE, Ramos RR XCL cells (Burkitt's); background control
[21] = target: CD37 (Leukocyte Antigen CD37, Tetraspanin-26) on cells (human) (UniProt P11049); test: FACS, 5 ug/mL biotinylated control antibody + streptavidin-PE, KG-1 cells (AML); filing calls it high isotype control background binding
[22] = target: CD37 (Leukocyte Antigen CD37, Tetraspanin-26) on cells (human) (UniProt P11049); test: FACS, 5 ug/mL biotinylated control antibody + streptavidin-PE, Hel 92.1 cells (AML); filing calls it high isotype control background binding
[23] = target: CD37 (Leukocyte Antigen CD37, Tetraspanin-26) on cells (human) (UniProt P11049); test: FACS, 5 ug/mL biotinylated control antibody + streptavidin-PE, Granta-519 cells (MCL); filing calls it high isotype control background binding

Chain of CD37 (Leukocyte Antigen CD37, Tetraspanin-26) on cells (human) (P11049 whole entry): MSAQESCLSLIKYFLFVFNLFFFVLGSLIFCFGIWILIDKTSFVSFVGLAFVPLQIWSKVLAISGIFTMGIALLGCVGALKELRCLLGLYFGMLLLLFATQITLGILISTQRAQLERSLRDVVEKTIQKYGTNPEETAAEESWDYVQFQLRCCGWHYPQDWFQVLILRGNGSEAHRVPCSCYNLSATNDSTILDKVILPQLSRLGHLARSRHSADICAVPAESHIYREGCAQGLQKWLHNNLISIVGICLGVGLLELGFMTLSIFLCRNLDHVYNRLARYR

**Q.** How did the Geometric Mean (fluorescence) [1] turn out when “Isotype matched control antibody (biotinylated)” was run?
**A.** 290

**Q.** And the Geometric Mean (fluorescence) [2]?
**A.** 1480

**Q.** What about the Geometric Mean (fluorescence) [3] of the same substance?
**A.** 189

**Q.** What about the Geometric Mean (fluorescence) [4] of the same substance?
**A.** 967

**Q.** What about the Geometric Mean (fluorescence) [5] of the same substance?
**A.** 1930

**Q.** And the Geometric Mean (fluorescence) [6]?
**A.** 1010

**Q.** And the Geometric Mean (fluorescence) [7]?
**A.** 324

**Q.** And the Geometric Mean (fluorescence) [8]?
**A.** 1310

**Q.** What about the Geometric Mean (fluorescence) [9] of the same substance?
**A.** 155

**Q.** And the Geometric Mean (fluorescence) [10]?
**A.** 240

**Q.** What about the Geometric Mean (fluorescence) [11] of the same substance?
**A.** 247

**Q.** And the Geometric Mean (fluorescence) [12]?
**A.** 188

**Q.** And the Geometric Mean (fluorescence) [13]?
**A.** 200

**Q.** What about the Geometric Mean (fluorescence) [14] of the same substance?
**A.** 1760

**Q.** What about the Geometric Mean (fluorescence) [15] of the same substance?
**A.** 1050

**Q.** And the Geometric Mean (fluorescence) [16]?
**A.** 2040

**Q.** And the Geometric Mean (fluorescence) [17]?
**A.** 1150

**Q.** And the Geometric Mean (fluorescence) [18]?
**A.** 1200

**Q.** What about the Geometric Mean (fluorescence) [19] of the same substance?
**A.** 840

**Q.** And the Geometric Mean (fluorescence) [20]?
**A.** 693

**Q.** What about the Geometric Mean (fluorescence) [21] of the same substance?
**A.** 8190

**Q.** And the Geometric Mean (fluorescence) [22]?
**A.** 4220

**Q.** And the Geometric Mean (fluorescence) [23]?
**A.** 15400
